In the assay the target is RAD18-CFP (human) (UniProt Q9NS91). Kind of assay: FRET or BRET.
Sequence of UniProt Q9NS91 (Q9NS91 whole entry): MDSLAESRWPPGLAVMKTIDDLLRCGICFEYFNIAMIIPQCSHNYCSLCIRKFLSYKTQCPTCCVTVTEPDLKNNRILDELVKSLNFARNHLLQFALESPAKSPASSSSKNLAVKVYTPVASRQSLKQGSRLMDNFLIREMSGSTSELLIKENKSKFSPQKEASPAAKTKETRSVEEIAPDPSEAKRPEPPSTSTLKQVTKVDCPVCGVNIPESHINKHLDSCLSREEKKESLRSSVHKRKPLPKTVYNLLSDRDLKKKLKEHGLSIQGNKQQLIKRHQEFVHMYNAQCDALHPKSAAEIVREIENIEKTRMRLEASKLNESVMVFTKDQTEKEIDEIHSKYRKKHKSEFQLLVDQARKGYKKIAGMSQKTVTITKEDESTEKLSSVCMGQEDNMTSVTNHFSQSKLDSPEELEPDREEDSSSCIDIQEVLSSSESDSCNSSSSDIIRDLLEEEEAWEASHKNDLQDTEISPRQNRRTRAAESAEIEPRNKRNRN

On to “RAD6A-YFP (from UniProt P49459 1-152) (natural protein)”, for which the FRET efficiency came to 72%.

Values taken from article PMC2610409.
